Kd data for four molecules are collected here from patent US20230416345A1, “NEW TYPE II COLLAGEN BINDING PROTEINS” (Navigo Proteins GmbH, priority 2020, published 2023).

Where only a bound is given, the exact number is not on record here.

The target of experiment [1] is human type II collagen (type II collagen alpha I chain) (human) (UniProt P02458). Briefly: SPR, Biacore 3000, Langmuir 1:1 model.
Experiment [2] has the same target. Briefly: ELISA, collagen coated on the plate, dilution series of the binder, detection via StrepTag, A 450-600 nm. (In general: ELISA stands for enzyme-linked immunosorbent assay.)
The target is the same in experiment [3]. Briefly: ELISA (KD determination by ELISA, Example 5).

B1: CID 211999 (SEQ ID NO: 38), dimer of SEQ ID NO: 2 (directly joint monomers) (designed binder, not shown: small tags and cut ends)
chain: IAAKFDEAQSAADSEILHLPNLTEQQRHYFRRWLSDDPSVSTHILTQAQHLNDDQAPKIAAKFDEAQSAADSEILHLPNLTEQQRHYFRRWLSDDPSVSTHILTQAQHLNDDQAPKSAWSHPQFEK
In the case of B1, the Kd in experiment [1] came to 0.127 µM; in experiment [2] it was 0.00806 µM.

B2: CID 212000 (SEQ ID NO: 39), dimer of SEQ ID NO: 2 with linker between the monomers (designed binder, not shown: small tags and cut ends)
chain: IAAKFDEAQSAADSEILHLPNLTEQQRHYFRRWLSDDPSVSTHILTQAQHLNDDQAPKGGGGSGGGGSGGGGSGGGGSIAAKFDEAQSAADSEILHLPNLTEQQRHYFRRWLSDDPSVSTHILTQAQHLNDDQAPKSAWSHPQFEK
For the molecule B2, the Kd was 0.18 µM in experiment [1] and 0.00638 µM in experiment [2].

B3: 210987 (SEQ ID NO: 36) (designed binder, not shown: small tags and cut ends)
chain: IAAKFDEAQQAAFYEILHLPNLTEQQRNYFIQWLRDDPSVSLEVLGTAQRLNDSQAPKIAAKFDEAQQLAFYQILHLENLTEEQRNAFIQSLRDDPSVSLEVLGEAIKLNLSQAPK
With B3, the equilibrium dissociation constant (Kd) in experiment [3] is 0.46 µM; in experiment [1], 0.169 µM.

B4: CID 212001 (SEQ ID NO: 41), tetramer of SEQ ID NO: 2 (designed binder, not shown: small tags and cut ends)
chain: IAAKFDEAQSAADSEILHLPNLTEQQRHYFRRWLSDDPSVSTHILTQAQHLNDDQAPKIAAKFDEAQSAADSEILHLPNLTEQQRHYFRRWLSDDPSVSTHILTQAQHLNDDQAPKIAAKFDEAQSAADSEILHLPNLTEQQRHYFRRWLSDDPSVSTHILTQAQHLNDDQAPKIAAKFDEAQSAADSEILHLPNLTEQQRHYFRRWLSDDPSVSTHILTQAQHLNDDQAPKSAWSHPQFEK
Take B4: the results for the Kd in experiment [1] and in experiment [2] were less than 0.0005 µM and 0.0003 µM, respectively.

By Kd is commonly meant the constant that tells how readily two partners part at equilibrium.
